Reference: patent US20060029943A1

Biological target: HLA class I on primary cervical cancer cells CA1 and CA2 (haplotype HLA A1) (human)
Assay: cell-based or functional assay

Q: With “Mab specific for monomorphic HLA class I W6/32 (antibody)” as the substance, how does the percent killing of CA1 target, AAV/E6/Neo (purified virus) plus anti-class I antibodies (36.1+/-1.4% without antibody) read?
A: 0.4%
